# Target: Villin-1 (human (endogenous in HepG2)) (UniProt P09327)
# Experiment: co-IP
# Chain of UniProt P09327 (P09327 whole entry): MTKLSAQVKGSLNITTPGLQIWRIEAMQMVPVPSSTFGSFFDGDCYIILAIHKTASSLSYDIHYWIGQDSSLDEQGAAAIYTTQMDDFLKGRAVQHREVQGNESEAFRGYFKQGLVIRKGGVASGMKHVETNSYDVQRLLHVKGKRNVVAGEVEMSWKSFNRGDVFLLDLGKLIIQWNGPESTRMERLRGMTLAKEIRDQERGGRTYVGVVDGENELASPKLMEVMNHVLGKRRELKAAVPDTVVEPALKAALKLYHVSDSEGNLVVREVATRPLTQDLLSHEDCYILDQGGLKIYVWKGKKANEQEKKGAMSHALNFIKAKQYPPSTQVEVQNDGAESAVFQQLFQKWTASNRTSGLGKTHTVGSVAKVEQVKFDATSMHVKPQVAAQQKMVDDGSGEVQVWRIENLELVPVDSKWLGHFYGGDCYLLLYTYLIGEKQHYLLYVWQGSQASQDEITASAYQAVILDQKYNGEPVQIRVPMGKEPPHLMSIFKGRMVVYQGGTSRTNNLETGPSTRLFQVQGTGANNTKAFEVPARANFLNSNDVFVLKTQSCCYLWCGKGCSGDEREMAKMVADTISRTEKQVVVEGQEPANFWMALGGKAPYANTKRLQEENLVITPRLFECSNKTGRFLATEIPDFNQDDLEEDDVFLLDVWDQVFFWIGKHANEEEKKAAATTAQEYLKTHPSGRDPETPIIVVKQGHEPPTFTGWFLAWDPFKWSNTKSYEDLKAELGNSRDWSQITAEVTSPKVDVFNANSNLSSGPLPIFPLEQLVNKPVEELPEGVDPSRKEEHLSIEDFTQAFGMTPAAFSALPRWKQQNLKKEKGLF
substance,measurement,value
"ß-actin (actin, cytoplasmic 1, ACTB) (from UniProt P60709 1-375) (natural protein)",fold change of co-precipitated actin after fusion against control,28.7 fold

# From paper PMC5739296
